This passage reports Kd results from the Immune Epitope Database (IEDB).

The term Kd denotes the equilibrium constant for the complex coming apart.

A value given as a limit tells only on which side of the number the result lay.

Targets include HLA-A*33:01; HLA-A*03:01; HLA-A*31:01; HLA-A*68:01; HLA-A*11:01.
Common to all, as to experiment: IEDB peptide-MHC binding, purified MHC/competitive/radioactivity; filed as Kd, often an IC50 or EC50 that approximates it; ≥ and ≤ were set here for values at or beyond the usual limits of such assays
Setting [1] is: source organism: Triticum aestivum.
[2] abbreviates: source organism: Vaccinia virus WR.
Where [3] appears, read: source organism: Dengue virus 1 Brazil/97-11/1997.
Where [4] appears, read: source organism: Dengue virus 3 Martinique/1243/1999.
Setting [5] is: source organism: Dengue virus 4 Philippines/H241/1956.
The mark [6] stands for this setting: source organism: Mammarenavirus guanaritoense.
[7] abbreviates: source organism: Dengue virus 2 Jamaica/1409/1983.
[8] abbreviates: source organism: Lymphocytic choriomeningitis virus (strain Armstrong).

Take QLLQELCCQH: the Kd with HLA-A*33:01 (setting [1]) was not below 70000 nM; with HLA-A*03:01 (setting [1]), not below 27100 nM; with HLA-A*31:01 (setting [1]), not below 70000 nM; with HLA-A*68:01 (setting [1]), 17400 nM; with HLA-A*11:01 (setting [1]), not below 69800 nM.
As to NSQIFNIISY, the dissociation constant Kd in the assay with HLA-A*33:01 (setting [2]) amounted to 10600 nM; with HLA-A*03:01 (setting [2]) it was 1080 nM; with HLA-A*31:01 (setting [2]) it was 1320 nM; in the assay with HLA-A*68:01 (setting [2]), 441 nM; with HLA-A*11:01 (setting [2]) it was 5090 nM.
Consider MATYGWNLVK, for which the Kd with HLA-A*11:01 (setting [3]) amounted to 370 nM.
In the case of WIQYDKHCY, the dissociation constant Kd with HLA-A*33:01 (setting [2]) was not below 60400 nM; with HLA-A*03:01 (setting [2]), 5820 nM; with HLA-A*31:01 (setting [2]) it was 5660 nM; with HLA-A*68:01 (setting [2]) it was 2980 nM; in the assay with HLA-A*11:01 (setting [2]), 39.5 nM.
AVFKNSFLGK: the dissociation constant Kd was not below 70000 nM with HLA-A*33:01 (source organism: Variola virus); not below 70000 nM with HLA-A*03:01 (source organism: Variola virus); not below 70000 nM with HLA-A*31:01 (source organism: Variola virus); not below 70100 nM with HLA-A*68:01 (source organism: Variola virus); not below 69700 nM with HLA-A*11:01 (source organism: Variola virus).
ASKTINALVY: the Kd was not below 70000 nM with HLA-A*33:01 (setting [2]); 761 nM with HLA-A*03:01 (setting [2]); 11100 nM with HLA-A*31:01 (setting [2]); not below 41800 nM with HLA-A*68:01 (setting [2]); 1010 nM in the assay with HLA-A*11:01 (setting [2]).
In the same order, the values of EIIFLKLFK are 99.3 nM, 16.1 nM, 602 nM, 0.699 nM and 1.25 nM.
In the same order, the values of AARILSEKRK are not below 70000 nM, 7880 nM, not below 63700 nM, 8050 nM and 3140 nM.
For EFKEFAAGRR, the Kd with HLA-A*33:01 (setting [3]) is 37.6 nM.
For SVLCVKKFYK, the equilibrium dissociation constant (Kd) was 12.2 nM with HLA-A*33:01 (setting [2]); 1.14 nM in the assay with HLA-A*03:01 (setting [2]); 0.785 nM in the assay with HLA-A*31:01 (setting [2]); 1.01 nM with HLA-A*68:01 (setting [2]); 0.302 nM with HLA-A*11:01 (setting [2]).
With HLKCRLKMDK, in the assay with HLA-A*03:01 (setting [3]), the Kd is 68 nM.
As for KPKPAVRFAI, the equilibrium dissociation constant (Kd) with HLA-A*31:01 (setting [2]) was not below 70000 nM.
For EKVETWALR, the dissociation constant Kd in the assay with HLA-A*33:01 (setting [4]) is 74.9 nM; with HLA-A*68:01 (setting [4]), not below 22900 nM.
Turning to AALAFHLTSR, in the assay with HLA-A*31:01 (setting [4]), the Kd is 17.5 nM.
Turning to TTSKMLLNR, the results for the equilibrium dissociation constant (Kd) in the assay with HLA-A*68:01 (setting [5]) and in the assay with HLA-A*11:01 (setting [5]) were 59.8 nM and 178 nM, respectively.
Take VTAASAAQR: in the assay with HLA-A*68:01 (setting [4]), the dissociation constant (Kd) stood at 43.2 nM.
As for QAAILMGLDK, in the assay with HLA-A*68:01 (setting [3]), the Kd is 377 nM.
Regarding MLNIMNRRK, the Kd with HLA-A*03:01 (setting [3]) turned out to be 21 nM.
With ACRCGRFQK, the Kd in the assay with HLA-A*33:01 (setting [6]) was not below 27300 nM; with HLA-A*03:01 (setting [6]), 3570 nM; with HLA-A*31:01 (setting [6]) it was 1440 nM; in the assay with HLA-A*11:01 (setting [6]), 5130 nM.
For the sequence VTHSSAAQR, the equilibrium dissociation constant (Kd) in the assay with HLA-A*31:01 (setting [7]) is 25.8 nM; with HLA-A*68:01 (setting [7]), 42 nM.
With RLKMDKLTLK, in the assay with HLA-A*03:01 (setting [3]), the dissociation constant Kd was 13 nM.
Turning to LVMAFIAFLR, the dissociation constant (Kd) in the assay with HLA-A*33:01 (setting [3]) came out at 106 nM; in the assay with HLA-A*31:01 (setting [3]) it was 73.5 nM; in the assay with HLA-A*68:01 (setting [3]) it was 31.8 nM; with HLA-A*11:01 (setting [3]) it was 1380 nM.
For MLVTPSMTMR, the Kd was determined as 111 nM in the assay with HLA-A*31:01 (setting [4]) and 54.7 nM with HLA-A*68:01 (setting [4]).
As for LLNGQGPMK, the dissociation constant Kd with HLA-A*03:01 (setting [4]) is 16.2 nM.
Consider YTIGTTHFQR, for which the Kd is 6.12 nM with HLA-A*33:01 (setting [7]), 44.3 nM with HLA-A*31:01 (setting [7]) and 17.3 nM with HLA-A*68:01 (setting [7]).
Regarding AALSEGVYR, the Kd with HLA-A*31:01 (source organism: Dengue virus 4 Dominica/814669/1981) was determined as 169 nM.
Take YYCGGLKNVR: the Kd with HLA-A*33:01 (setting [7]) is 3.1 nM.
Consider RTLAKEGIKR, for which the Kd in the assay with HLA-A*31:01 (setting [7]) is 14.3 nM.
As to NTTSKMLLNR, the Kd amounted to 100 nM with HLA-A*33:01 (setting [5]) and 179 nM with HLA-A*68:01 (setting [5]).
Regarding LTKFVSAALH, the results for the Kd with HLA-A*33:01 (setting [8]), with HLA-A*31:01 (setting [8]) and with HLA-A*68:01 (setting [8]) were 3760 nM, 864 nM and 221 nM, respectively.
Take TANPVVTKK: in the assay with HLA-A*11:01 (setting [4]), the dissociation constant Kd was 245 nM.
Regarding SAKLRWFVER, the Kd in the assay with HLA-A*33:01 (setting [7]) was determined as 46.5 nM; with HLA-A*31:01 (setting [7]) it was 26.3 nM.
On to KVLRENTSPK, for which the equilibrium dissociation constant (Kd) with HLA-A*03:01 (source organism: Homo sapiens) was found to be 28.9 nM.
Consider TLGWLLQTPK, for which, in the assay with HLA-A*03:01 (source organism: Homo sapiens), the Kd is 7.5 nM.
On to AISGDDCVVK, for which the dissociation constant Kd with HLA-A*11:01 (setting [7]) is 2070 nM.
For TYLALMATFK, the dissociation constant Kd with HLA-A*33:01 (setting [3]) was found to be 11 nM.
MYFHRRDLR: the figures for the Kd with HLA-A*33:01 (setting [7]), with HLA-A*31:01 (setting [7]) and with HLA-A*68:01 (setting [7]) were 5.64 nM, 0.137 nM and 346 nM, respectively.
As to CTTTGEHRR, in the assay with HLA-A*68:01 (source organism: Dengue virus 2 Peru/IQT2913/1996), the dissociation constant (Kd) turned out to be 27.6 nM.
Consider RQMEGEGIFK, for which the Kd with HLA-A*03:01 (setting [7]) was 21.5 nM; in the assay with HLA-A*11:01 (setting [7]), 127 nM.
